The target in the data set is Sam68 QUA1-KH (UniProt Q07666 96-260). Nature of the data set: EMSA; 40 uM RNA, 10-200 uM protein; NMR buffer 20 mM NaHPO4 pH 6.5, 100 mM NaCl, 1 mM beta-mercaptoethanol, 50 mM L-Arg, 50 mM L-Glu; 19F NMR of free RNA at 303 K, with or without 40% HeLa nuclear extract; EMSA 14% PAGE in TBE pH 7.6, 4 C. To be noted: protein: recombinant; tags: N-terminal His6-TEV (pLEICS-01), TEV-treated; chain copies: 2; single-stranded. A general note: A gel shift assay detects complexes by their altered migration in electrophoresis.

The results in this text go back to publication PMC10899400, “2′-19F labelling of ribose in RNAs: a tool to analyse RNA/protein interactions by NMR in physiological conditions”.

Sequence of Sam68 QUA1-KH (Q07666 96-260): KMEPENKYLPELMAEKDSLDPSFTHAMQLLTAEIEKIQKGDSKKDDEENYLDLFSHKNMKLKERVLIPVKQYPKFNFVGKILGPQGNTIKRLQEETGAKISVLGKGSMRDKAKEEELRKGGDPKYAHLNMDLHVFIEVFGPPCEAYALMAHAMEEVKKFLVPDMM

Regarding UUACAGGGUUUUAGACAAAAU (ssRNA) [unmodified RNA (SMN2 21-mer)], the binding result is “binds”.
